Experimental data: patent US11319601B2, “Cell based assay” (Medical Diagnostic Laboratories, L.L.C., priority 2017, dated 2022)
Entries after “also recorded” stand apart in the source; their conditions may differ.

Tests used:
Format in all cases: cell-based
wild-type HER2 receptor [1] = target: T1, wild-type HER2 receptor (Homo sapiens, UniProt P04626); assay: 6×JNK-Luc reporter in HEK293 DKO #27 cells transfected with HER2 and HER3 expression plasmids; settings: 6 hours
T1 construct: expressed in transfected cells
Protocol: In example 4, the generation double knockout cells (HEK293 DKO #27) of HER1 and HER2 receptors was described. No protein expression of HER1 and HER2 receptors was detected by immunoblot assays. In order to characterize whether these cells are desirable for use in the assay of the invention, 6×JNK-Luc was co-transfected with expression plasmids of HER3 and wild-type HER2 receptors. After 24 hours, the transfected cells were treated with a serial dilution of NRG1 (HER3 receptor ligand) for 6 hours. The luciferase reporter activity of the transfected cells was measured by Nano-Glo® Luciferase Assay (Promega).
In order to validate the requirement of HER2 receptor in the activation of 6×JNK-Luc reporter in response to NRG1 treatment, the DKO #27 cells were transfected with the wild-type HER2 and HER3 expression plasmids followed by treatment of HER2 inhibitors for 6 hours. The luciferase reporter activity of the treated cells was measured by Nano-Glo® Luciferase Assay (Promega). […]
In order to validate that this 6×JNK-Luc reporters has the capacity of measuring HER2 receptor activity, the reporters were co-transfected with expression plasmids of HER3 and wild-type, constitutively active or kinase-dead HER2 receptors into the DKO #27 cells. […] The luciferase reporter activity of the transfected cells was measured by Nano-Glo® Luciferase Assay (Promega). […]

wild-type HER2 receptor [2] = target: T1, wild-type HER2 receptor; assay: Clone #28 stable 6×JNK-Luc reporter cells with HER3 plasmid and HER2 linear expression cassette; settings: HER3 plasmid and HER2 linear expression DNA, 6 hours
Protocol: In the assay of the invention, expression of patient HER2 receptor is in the linear expression cassette format instead of plasmid DNA. Therefore, the clone #28 cells were transfected with HER3 expression plasmid and HER2 linear expression DNA. After 24 hours, the transfected cells were stimulated with a serial dilution of NRG1 for 6 hours. The luciferase reporter activity was measured. […] Therefore, this clone can be used to measure HER2 receptor activity by transfecting linear expression DNA of HER2.
In order to validate that the clone #28 cells was capable to measure the HER2 receptor activity, expression plasmids of HER3 were co-transfected with wild-type, constitutively active or kinase-dead HER2 receptors. […] The luciferase reporter activity of the transfected cells was measured by Nano-Glo® Luciferase Assay (Promega). […] However, no activation of reporter was detected when the cells were transfected with kinase-dead form of HER2 receptor.
In order to validate that the clone #28 reporter cells were capable of measuring the response of HER2 receptor to its inhibitors, these cells were first transfected with the HER2 linear expression DNA and HER3 expression plasmids followed by treatment of HER2 inhibitors for 6 hours in the presence of NRG1. The luciferase reporter activity of the treated cells was measured by Nano-Glo® Luciferase Assay (Promega). […]

L755S HER2 receptor = target: T2, L755S HER2 receptor (Homo sapiens, UniProt P04626, L755S); assay: HER2 reporter cells transfected with linear expression cassette of L755S HER2, all-in-one method
T2 construct: expressed in transfected cells; host or cells: HER2 reporter cells (clone #1)
Description: L755S corresponds to a missense mutation of HER2, which changes leucine (L) into serine (S) at amino acid position of 755. In order to functionally characterize this mutation, PCR-mediated overlapping extension was employed to construct linear expression cassette of HER2 carrying this mutation. The linear expression cassette of mutant HER2 DNA was first transfected into the reporter cells followed by treatment with NRG1 and its inhibitors using the “all-in-one” method. The luciferase reporter activity was measured 24 hours post-transfection.

T862A HER2 receptor = target: T3, T862A HER2 receptor (Homo sapiens, UniProt P04626, T862A); assay: HER2 reporter cells transfected with linear expression cassette of T862A HER2, all-in-one method
T3 construct: expressed in transfected cells; host or cells: HER2 reporter cells (clone #1)
Description: T862A corresponds to a missense mutation of HER2, which changes Threonine (T) into Alanine (A) at amino acid position of 862. In order to functionally characterize this mutation, PCR-mediated overlapping extension was employed to construct a linear expression cassette of HER2 carrying this mutation. The linear expression cassette of mutant HER2 DNA was transfected into the reporter cells followed by treatment with NRG1 and its inhibitors using the “all-in-one” method. The luciferase reporter activity was measured 24 hours post-transfection.

response of mutant HER2 reporter activity to ligand (L755S HER2 receptor): responds to treatment
response of mutant HER2 reporter activity to ligand (T862A HER2 receptor): dose-dependent manner
Substance: NRG1: neuregulin-1, HER3 receptor ligand
6×JNK-Luc reporter activation by ligand (wild-type HER2 receptor [1]): dose dependent activation; also recorded: activated
reporter activation by ligand (wild-type HER2 receptor [2]): dose dependent manner; also recorded: activated
